Reference: patent publication CN111138536A (REYOUNG (SUZHOU) BIOPHARMACEUTICAL CO LTD, dated 2020)

Biological target: T1, 人血清白蛋白 (human, UniProt P02768 25-609)
T1 construct: also called HSA; human serum albumin
Assay: SPR (Biacore T200); HSA amine-coupled to CM5 chip, NB4 as analyte

Kd: 0.245 nM
B1: 单域抗体NB4 (VHH)
VHH: QVQLQESGGGSVQAGGSLRLACAASGYTYSSACMAWFRQAPGKEREKVATIYTGGTYPYYADSVKGRFTMSHDNAKNTVYLQMNSLKPEDTGMYYCAADASWGCRLSGSWGAKYNNWGQGTQVTVSS
notes: Camel-derived VHH, expressed in E. coli BL-21 from pET-22 with a C-terminal 6x His tag and purified on a nickel column; also called 抗人血清白蛋白单域抗体
